Reference: publication PMC8374900 (ACS Omega, 2021)

Molecular target: the molecule itself
Experiment: AUC

B1: endo_N-BAR L187C (C108A) labeled with A488 (domain or fragment, rat, UniProt O35179 1-247, looked up)
chain: MSVAGLKKQFHKATQKVSEKVGGAEGTKLDDDFKEMERKVDVTSRAVMEIMTKTIEYLQPNPASRAKLSMINTMSKIRGQEKGPGYPQAEALLAEAMLKFGRELGDDANFGPALGEVGEAMRELSEVKDSLDMEVKQNFIDPLQNLHDKDLREIQHHLKKLEGRRLDFDYKKKRQGKIPDEELRQACEKFDESKEIAESSMFNLLEMDIEQVSQLSALVQAQLEYHKQAVQILQQVTVRLEERIRQA
modifications: Alexa Fluor 488 C5-maleimide on the introduced Cys 187
In the case of B1, the “stoichiometry N” value is reported as 2.
